Reference: publication PMC3748285 (Cell reports, 2013)

Experiments:
[1] = target: LTag131-627 V350E/P417D (Simian virus 40); experiment: SEC + other: SDS-PAGE gel quantification
[2] = target: SV40 large T antigen LTag131-627 (Simian virus 40, UniProt P03070 131-627); experiment: X-ray crystallography
[3] = target: the molecule itself; experiment: SEC
[4] = target: the molecule itself; experiment: crystal structure

LTag131-627 L286Dt/R567E (domain or fragment)
stoichiometry N [1]: 1 mut1:mut2

B1: EP-half ori 32 bp (dsDNA)
DNA 1: ACTACTTCTGGAATAGCTCAGAGGCCGAGGCG
DNA 2: CGCCTCGGCCTCTGAGCTATTCCAGAAGTAGT
binding result [2]: binds

B2: SV40 large tumor antigen LTag131-627 (wild type) (domain or fragment)
chain: KVEDPKDFPSELLSFLSHAVFSNRTLACFAIYTTKEKAALLYKKIMEKYSVTFISRHNSYNHNILFFLTPHRHRVSAINNYAQKLCTFSFLICKGVNKEYLMYSALTRDPFSVIEESLPGGLKEHDFNPEEAEETKQVSWKLVTEYAMETKCDDVLLLLGMYLEFQYSFEMCLKCIKKEQPSHYKYHEKHYANAAIFADSKNQKTICQQAVDTVLAKKRVDSLQLTREQMLTNRFNDLLDRMDIMFGSTGSADIEEWMAGVAWLHCLLPKMDSVVYDFLKCMVYNIPKKRYWLFKGPIDSGKTTLAAALLELCGGKALNVNLPLDRLNFELGVAIDQFLVVFEDVKGTGGESRDLPSGQGINNLDNLRDYLDGSVKVNLEKKHLNKRTQIFPPGIVTMNEYSVPKTLQARFVKQIDFRPKDYLKHCLERSEFLLEKRIIQSGIALLLMLIWYRPVAEFAQSIQSRIVEWKERLDKEFSLSVYQKMKFNVAMGIGVLD
stoichiometry N [3]: 6
stoichiometry N [4]: 2
